# B1: Endoglin (Homo sapiens), P17813 (parent)
# chain: MDRGTLPLAVALLLASCSLSPTSLAETVHCDLQPVGPERGEVTYTTSQVSKGCVAQAPNAILEVHVLFLEFPTGPSQLELTLQASKQNGTWPREVLLVLSVNSSVFLHLQALGIPLHLAYNSSLVTFQEPPGVNTTELPSFPKTQILEWAAERGPITSAAELNDPQSILLRLGQAQGSLSFCMLEASQDMGRTLEWRPRTPALVRGCHLEGVAGHKEAHILRVLPGHSAGPRTVTVKVELSCAPGDLDAVLILQGPPYVSWLIDANHNMQIWTTGEYSFKIFPEKNIRGFKLPDTPQGLLGEARMLNASIVASFVELPLASIVSLHASSCGGRLQTSPAPIQTTPPKDTCSPELLMSLIQTKCADDAMTLVLKKELVAHLKCTITGLTFWDPSCEAEDRGDKFVLRSAYSSCGMQVSASMISNEAVVNILSSSSPQRKKVHCLNMDSLSFQLGLYLSPHFLQASNTIEPGQQSFVQVRVSPSVSEFLLQLDSCHLDLGPEGGTVELIQGRAAKGNCVSLLSPSPEGDPRFSFLLHFYTVPIPKTGTLSCTVALRPKTGSQDQEVHRTVFMRLNIISPDLSGCTSKGLVLPAVLGITFGAFLIGALLTAALWYIYSHTRSPSKREPVVAVAAPASSESSSTNHSIGSTQSTPCSTSSMA
# Variants of: B1
# Settings: with arrb2_human ARRB2, P32121
# arrb2_human ARRB2, P32121, sequence (P32121 whole entry): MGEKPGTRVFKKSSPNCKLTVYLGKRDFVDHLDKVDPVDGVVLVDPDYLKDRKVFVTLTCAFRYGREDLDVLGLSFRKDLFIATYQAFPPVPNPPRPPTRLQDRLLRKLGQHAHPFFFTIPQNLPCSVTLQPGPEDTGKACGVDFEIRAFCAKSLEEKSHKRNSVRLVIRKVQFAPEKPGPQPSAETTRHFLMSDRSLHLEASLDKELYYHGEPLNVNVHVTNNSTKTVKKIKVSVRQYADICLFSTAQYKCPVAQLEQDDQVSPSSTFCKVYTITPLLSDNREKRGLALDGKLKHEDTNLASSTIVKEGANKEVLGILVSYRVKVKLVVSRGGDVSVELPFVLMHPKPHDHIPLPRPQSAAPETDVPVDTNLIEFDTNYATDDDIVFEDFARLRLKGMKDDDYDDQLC
row,effect of a mutation on the interaction,Variant
1,disrupting interaction,T650A
